Numbering of substitutions follows the chain as printed.
T1: human IL-2Rγ (common cytokine receptor γ-chain) (human, UniProt P31785 23-262, limits assumed)
T1 construct: Recombinant human IL-2Rγ protein coated on the ELISA plate or immobilised on the CM5 chip; also called hu IL-2R; CD132
T1 sequence: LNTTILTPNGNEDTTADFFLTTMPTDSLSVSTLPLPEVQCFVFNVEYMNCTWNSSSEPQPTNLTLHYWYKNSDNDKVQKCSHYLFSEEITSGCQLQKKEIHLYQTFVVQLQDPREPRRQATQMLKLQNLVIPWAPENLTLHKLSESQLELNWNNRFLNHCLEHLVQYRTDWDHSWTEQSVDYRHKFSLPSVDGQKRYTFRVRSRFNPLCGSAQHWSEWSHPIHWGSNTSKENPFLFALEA

T2: human interleukin-2 receptor β-chain (IL-2Rβ; CD122), recombinant protein (human, UniProt P14784 27-240)
T2 construct: also called human IL-2R subunit CD122
T2 sequence: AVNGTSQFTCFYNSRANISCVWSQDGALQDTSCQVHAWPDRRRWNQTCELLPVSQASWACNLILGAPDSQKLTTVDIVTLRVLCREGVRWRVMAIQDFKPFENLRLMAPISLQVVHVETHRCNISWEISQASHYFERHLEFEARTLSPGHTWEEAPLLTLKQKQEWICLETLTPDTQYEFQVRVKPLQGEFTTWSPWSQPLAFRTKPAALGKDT

T3: mouse IL-2Rγ (mouse, UniProt P34902 23-263, limits assumed)
T3 construct: Recombinant mouse IL-2Rγ protein coated on the ELISA plate or immobilised on the CM5 chip; also called mo IL-2R
T3 sequence (looked up): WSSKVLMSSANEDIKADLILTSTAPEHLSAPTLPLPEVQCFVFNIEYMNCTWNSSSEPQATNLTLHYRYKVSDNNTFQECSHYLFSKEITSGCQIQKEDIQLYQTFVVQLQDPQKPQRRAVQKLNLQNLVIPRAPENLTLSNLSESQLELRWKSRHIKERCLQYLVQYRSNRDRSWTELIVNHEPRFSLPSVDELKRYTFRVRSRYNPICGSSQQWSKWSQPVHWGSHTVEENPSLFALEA

T4: human common cytokine receptor γ-chain (γc; IL-2Rγ; CD132), recombinant protein (human, UniProt P31785 23-262)
T4 construct: also called human IL-2R subunit CD132
T4 sequence: T1 sequence

B1: FJ1427_P035MP07E11 (VHH)
VHH: QVQLVESGGGLVQAGGSLRLSCAASGRTLSRYAMGWFRQAPGKEREFVTANSWGGDTYYADSVQGRFTFSRDNAKNTVYLQMNSLQPEDTAVYYCAAAPTSFATTAYSSSNSYAYWGQGTQVTVSS
notes: Tested as soluble VHH fragment in periplasmic extract (P.E.); also called Clone nr
B2: FJ1427_P035MP07A12 (VHH)
VHH: B1 VHH with V5Q, K43S, T49A, N51S, Y58F, Q64E, T77A, V92A, A103P
notes: as for B1
B3: FJ1427_P035MP07B12 (VHH)
VHH: B1 VHH with Q1E, F47Y, T49A, A50I, N51D, Y58F, Q64E, T77E, A97G, A114R
notes: as for B1
B4: FJ1427_P035MP07C11 (VHH)
VHH: B1 VHH with G16A, T49A, N51S, Q64E, T77A, A97G
notes: as for B1
B5: FJ1427_P035MP07D12 (VHH)
VHH: B1 VHH with T28A, Y32L, T49V, N51S, G55D, Y58F, Q64K, E88G
notes: Tested as soluble VHH fragment in periplasmic extract (P.E.); also called Clone nr; 668
B6: FJ1427_P035MP07E12 (VHH)
VHH: B1 VHH with A60T, Q64E, T77A, A114T
notes: as for B1
B7: FJ1427_P035MP07F11 (VHH)
VHH: B1 VHH with Y32L, T49A, A50V, Y58F, Q64E, F69Y, N76S, T77A
notes: as for B1
B8: FJ1427_P035MP07G11 (VHH)
VHH: B1 VHH with V5Q
notes: as for B1
B9: FJ1427_P035MP07H11 (VHH)
VHH: QVQLVESGGGLVQPGGSLRLSCAASGRTLSRYAMGWFRQAPGKDREFVAASSWGGDTFYADSVEGRFTFSRDNAENATYLQMNSLQPEDTAVYYCAAAPTSFATTAYSSSNSYGSWGQGTQVTVSS
notes: Tested as soluble VHH fragment in periplasmic extract (P.E.); also called Clone nr; 664
B10: FJ1427_P035MP07C12 (VHH)
VHH: QVQLVESGGGLVQAGGSLRLSCAASGRSLSRDAMGWFRQAPGKEREFVAVMSWGGDTFYTDSVEGRFTFSRDNAKNAVYLEMNDLQPEDTAVYYCAAAPTSFATTAYSSSNSYSYWGRGTQVTVSS
notes: as for B1
B11: FJ1427_P035MP07F12 (VHH)
VHH: EVQLVESGGGLVQAGDSLRLSCVASGRTLSRCAMGWFRKAPGKEREYVAISSWGGDTFYEDSVEGRFTFSRDNAKNTVYLQMNSLRPEDTAVYYCAAAPTSFATTAYSSSNSYAYWGQGTQVTVSS
notes: Tested as soluble VHH fragment in periplasmic extract (P.E.); also called Clone nr; 670
B12: 26-MP06A07 VHH (periplasmic extract) (VHH)
VHH: QVQLQESGGGLVQAGGSLRLSCAASGDVFVRYTMAWFRQAPGKEREFVASVTDSGRTTEYVDSVKGRFTVSRDNAKNTAYLQMNNLKPEDTAIYYCAANTDYFQIRSLDLNTWGQGTQVTVSS
notes: soluble VHH in periplasmic extract
B13: 23-MP06F03 VHH (periplasmic extract) (VHH)
VHH: B12 VHH with Q5V, A24V, E59D, D62H, A79V, I93V, R106K, L110A
notes: as for B12
B14: 19-MP03F08 VHH (periplasmic extract) (VHH)
VHH: EVQLVESGGGLVQTGGSLRLSCAASGGTFSRDAMAWFRQVPGKEREFVALISWSGATTNYADSVKGRFAISRDNGKNTVYLQMNRLKPADTAIYYCAADRRPMGSRSYFEPTEYDDWGQGTQVTVSS
notes: as for B12
B15: 17-MP02C09 VHH (periplasmic extract) (VHH)
VHH: QVQLQESGGGLVQAGGSLRLSCVASGSVSSINGMAWYRQGADNQRVLVAAISRVGNTAYGDSVKGRFTISRQNARNTVYLQMNSLKPEDTAVYYCNADSWGGDDYWGQGTQVTVSS
notes: as for B12
B16: 16-MP02B08 VHH (periplasmic extract) (VHH)
VHH: EVQLVESGGGLVQAGGSLRLSCAASGRAIENYPVGWFRQAPGKEREFVAAITWISGSTLYADSVKGRFTISRDNAKNTVYLQMSSLKPEDTALYYCAAALKTITRGQNDYSYWGQGTQVTVSS
notes: as for B12
B17: 20-MP03F10 VHH (periplasmic extract) (VHH)
VHH: EVQLVESGGGLVQAGGSLRLSCAASGRDFSSYAMGWFRQAPGKEREFVVAITWTKRSTDFPDSVKGRFTISRDNAKNTVYLDMNSLKPEDTAVYYCASARGLPVTPLGDIIYWGEGTLVTVSS
notes: as for B12
B18: 24-MP06E05 VHH (periplasmic extract) (VHH)
VHH: QVQLVESGGELVQGGASLRLSCAASGRTFSNANMAWFRQAPEKEREFVALITWSSGSTLYADSVKGRFTISRDNARKMVYLQMNSLKPEDTAVYYCAADGPPYSGTYYRYDTYDYWGQGTQVTVSS
notes: as for B12
B19: 22-MP03F12 VHH (periplasmic extract) (VHH)
VHH: EVQLVESGGGLVQAGGSLRLSCAASGSIFSINAMAWFRQVPGMERELVAAISRDGGASVYRDSVKGRFTISRDNSKNTVYLQMNTLKPEDTAIYVCAATRAIGWTARWITTDFDFWGQGTQVTVSS
notes: as for B12
B20: 15-MP02E06 VHH (periplasmic extract) (VHH)
VHH: QVQLVESGGGSVQPGGSLRLSCAASGFTFSNYAMSWVRQAPGKGLEWVASITGFGRGTDYADSVKGRFTISRDNAEDTLYLQMNSLKPEDTAVYYCAKYSSSTYYPPTPARGRDYRGQGTQVTVSS
notes: as for B12
B21: 18-MP03C03 VHH (periplasmic extract) (VHH)
VHH: QVQLVESGGGLVQPGGSLRLSCAISGGTLDSYGIGWVRQAPGKQREGVSCMSRSDDRTYYADSVKGRFTISKDSAKNTVYLQMTSLKPEDTAVYYCAAVDAYGCSLVQPTTYDFWGLGTQVTVSS
notes: as for B12
B22: 35-MP07G01 VHH (periplasmic extract) (VHH)
VHH: QVQLQESGGGLVQGGGSLRLSCAASGGIFSSYAMGWFRQAPGKEREFVAAISRSGRSTNYADSVKGRFTISRDNAKSTVYLQMNSLKPEETAVYYCAAGRYYNSAYDPSPGDFGSWGHGTQVTVSS
notes: as for B12

target: T1, human IL-2Rγ (common cytokine receptor …); experiment: SPR off-rate ranking, periplasmic extract over immobilised human IL-2Rγ
Protocol: (§1) SPR was performed to determine dissociation rates using Biacore 3000 instrument (GE Healthcare). Briefly, human and mouse IL-2R proteins were immobilized on carboxylmethyl dextran sensor chip (CM5) at approximately 2500 RUs using amine coupling in acetate buffer (GE Healthcare). The VHH-containing P.E. were loaded with a flow rate of 30 uL/min and the off-rates were measured over a 120s period.

Binder	koff
B1	0.00304 s⁻¹
B2	0.0027 s⁻¹
B3	0.00153 s⁻¹
B4	0.00485 s⁻¹
B5	0.00199 s⁻¹
B6	0.00305 s⁻¹
B7	0.00131 s⁻¹
B8	0.00351 s⁻¹
B9	0.00252 s⁻¹
B10	0.00197 s⁻¹
B11	0.00197 s⁻¹

target: T2, human interleukin-2 receptor β-chain …; experiment: P.E. off-rate SPR
Outline: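 Dissociation rates of nanobody (VHH) periplasmic extracts were measured across a 120s window on an amine-coupled carboxymethyl dextran surface bearing about 2500 RUs of receptor; injection flow 30 uL/min.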

Binder	koff
B12	0.000363 s⁻¹
B13	0.00105 s⁻¹
B14	0.000296 s⁻¹
B15	0.000848 s⁻¹
B16	0.000141 s⁻¹
B17	0.000595 s⁻¹
B18	0.000471 s⁻¹
B19	0.000419 s⁻¹
B20	0.00169 s⁻¹
B21	0.000594 s⁻¹

target: T1, human IL-2Rγ (common cytokine receptor …); experiment: binding ELISA, periplasmic extract on coated human IL-2Rγ
Protocol: (§2) In a binding ELISA, human or mouse IL-2Rα, IL-2Rβ and IL-2Rγ proteins were coated directly on maxisorp microtiter plates overnight at 4° C. Free binding sites were blocked using 4% Marvel in PBS for 1 hour. Next, 1:5 dilution of P.E. in 1% Marvel/PBS were added to wells and incubated for 1 hour. […] Binding specificity was determined based on O.D. at 450 nm values compared to negative controls.

Binder	P.E. binding ELISA OD450
B1	0.398 OD450 nm
B2	0.485 OD450 nm
B3	1.79 OD450 nm
B4	0.858 OD450 nm
B5	0.511 OD450 nm
B6	0.956 OD450 nm
B7	0.983 OD450 nm
B8	0.999 OD450 nm
B9	1.32 OD450 nm
B10	0.426 OD450 nm
B11	0.823 OD450 nm

target: T3, mouse IL-2Rγ; experiment: SPR off-rate ranking, periplasmic extract over immobilised mouse IL-2Rγ
Protocol: as §1

Binder	koff
B1	0.109 s⁻¹
B3	0.00766 s⁻¹
B5	0.0122 s⁻¹
B6	0.0883 s⁻¹
B7	0.00757 s⁻¹
B8	0.099 s⁻¹
B9	0.066 s⁻¹
B10	0.0146 s⁻¹
B11	0.00792 s⁻¹

target: T4, human common cytokine receptor γ-chain …; experiment: P.E. binding ELISA
Outline: (§3)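 Plates were coated overnight at 4° C with human or mouse IL-2R chain protein, and free sites blocked for 1 hour in 4% Marvel in PBS. Periplasmic extracts diluted 1:5 in 1% Marvel/PBS then bound for 1 hour, with specificity assessed from 450 nm absorbance relative to negative controls.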

Binder	OD450 nm
B22	0.134 OD450 nm

target: T2, human interleukin-2 receptor β-chain …; experiment: P.E. binding ELISA
Outline: as §3

Binder	OD450 nm
B12	1.03 OD450 nm
B13	0.54 OD450 nm
B14	0.245 OD450 nm
B15	1.21 OD450 nm
B16	1.38 OD450 nm
B17	0.497 OD450 nm
B18	0.355 OD450 nm
B19	0.781 OD450 nm
B20	0.581 OD450 nm
B21	0.405 OD450 nm

target: T3, mouse IL-2Rγ; experiment: binding ELISA, periplasmic extract on coated mouse IL-2Rγ
Protocol: as §2

Binder	P.E. binding ELISA OD450
B1	0.045 OD450 nm
B3	0.7 OD450 nm
B5	0.051 OD450 nm
B6	0.05 OD450 nm
B7	0.686 OD450 nm
B8	0.046 OD450 nm
B9	0.057 OD450 nm
B10	0.071 OD450 nm
B11	0.341 OD450 nm
